According to patent publication US6596504B2, “Treatment of prophylaxis of diseases caused by pilus-forming bacteria” (Washington University, priority 1993, dated 2003):
“Also recorded” adds a separate entry of the source.

How the values were obtained:
PapD [1] = target: T1, PapD (Escherichia coli, UniProt P15319); assay: Soluble inhibition ELISA: PapD binding to G1′-19′WT-coated wells; design: species or system E. coli; details: 25-fold molar excess of peptide, 100 pmol/well PapD, compared to water
T1 construct: (A) NAME/KEY: mat_; made in house; Lindberg et al. 1989
T1 sequence (P15319 22-239): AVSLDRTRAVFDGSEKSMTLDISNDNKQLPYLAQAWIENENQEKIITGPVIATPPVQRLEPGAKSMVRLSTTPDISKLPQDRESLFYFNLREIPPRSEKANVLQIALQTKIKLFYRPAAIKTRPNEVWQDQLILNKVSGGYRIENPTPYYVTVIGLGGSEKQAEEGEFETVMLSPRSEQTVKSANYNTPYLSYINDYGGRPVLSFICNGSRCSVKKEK
Description: Microtiter wells were coated overnight at 4° C. with 50 μl of 2,5 pmol/50 μl of the G1′-19′WT peptide. The wells were washed with PBS and blocked with 3% bovine serum albumin (BSA). A 25-fold molar excess of each test peptide was pre-incubated with 100 pmoles PapD for 30 min. and the PapD-peptide solution was then added to the coated wells and incubated at 25° C. for 45 min in the presence of 3% BSA/PBS. The subsequent primary antibody, secondary antibody and developing steps are described above. The ability of the peptides to inhibit binding of PapD to the G1′-19′WT peptide was calculated by dividing the amount of PapD binding in the presence of peptide with the amount of PapD binding in the presence of water. 0% inhibition includes values where binding was greater than that of PapD pre-incubated with H2O.

PapD [2] = target: T1, PapD; assay: ELISA: inhibition by peptides of PapD binding to MBP-G1′-140′ fusion protein; design: species or system E. coli; details: PapD preincubated with peptide at 1:25 ratio; preliminary results
Description: Stock solutions of MBP-G1′-140′ proteins in PBS were diluted to 0.1 μM with PBS. The wells of microtiter plates were coated with 50 μl of the protein solutions overnight at 4° C. The wells were washed with PBS, and blocked with 200 μl of 3bovine serum albumin (BSA) in PBS for 2 hours at 25° C. The plates were washed vigorously three times with PBS and incubated with 50 μl of 1-5 μM PapD proteins in […]-PBS for 45 minutes at 25° C. The PapD was preincubated with each of the peptides at a 1:25 ratio for 30 min before being added to the wells. After three washings with PBS, the wells were incubated with a 1:500 dilution of rabbit anti-PapD antiserum in BSA-PBS for 45 minutes at 25° C. After three washings with PBS, the wells were incubated with a 1:1000 dilution of goat antiserum to rabbit IgG coupled to alkaline phosphatase in 3BSA-PBS for 45 minutes at 25° C. After three washings with PBS and three washings with developing buffer (10 mM diethanolamine, 0.5 mM MgCl2), 50 μl filtered 1 mg/ml p-nitrophenyl phosphate in developing buffer was added, the reaction was incubated for 1 hour or longer if necessary in the dark at 25° C., and the absorbance at 405 nm was read.

PapD [3] = target: T1, PapD; assay: ELISA: PapD binding to peptides coated on microtiter wells; design: species or system E. coli; details: for binding of PapD to immobilized peptide: peptide coated on microtiter wells, ELISA with anti-PapD antiserum; for reduction of binding of PapD to the immobilized peptide: compared with G1′-19′WT peptide
Description: FIG. 1: PapD binds to pilus subunit-related peptides coated in ELISA microtiter plates and in solution. A and B: The peptides from Table 1 were coated on microtiter wells and tested for their ability to bind to PapD in an ELISA assay described in example 2. Water insoluble peptides were dissolved in 2.5% acetic acid (AA) which had no effect on the binding of G1′-19′WT to PapD in this assay. Each group represents the average of duplicate wells.
5 mg/ml stock solutions of peptides in water or 50% acetic acid were diluted to a concentration of 2.5 pmol/50 μl in PBS. 50 μl of the peptide solution was coated overnight onto microtiter wells (Nunc-Immuno Plate Maxisorp) at 4° C. The solutions in the plates were discarded, and the wells were blocked with 200 μl 3% bovine serum albumin (BSA, Sigma) in PBS (120 mM NaCl/2.7 mM KCl/10 mM phosphate buffer salts, pH 7.4) for 2 hours at 25° C. The plates were washed vigorously 3 times with PBS and incubated with 50 μl of the indicated amount of purified PapD (Lindberg et al, 1989). After 3 washes with PBS, the wells were incubated with a 1:500 dilution of anti-PapD rabbit antiserum (Lindberg et al, 1989) in 3% BSA/PBS for 45 min. at 25° C. After 3 washes with PBS, the wells were incubated with a 1:1000 dilution of goat anti-rabbit IgG coupled to alkaline phosphatase (Sigma) in 3% BSA/PBS for 45 min. at 25° C. Following 3 washes with PBS and 3 washes with developing buffer (10 mM diethanolamine pH 9.5, 0,5 MM MgCl2), 50 μl filtered p-nitrophenyl phosphate substrate (Sigma) in developing buffer (10 mg/ml) was added. The absorbance at 405 nm was read after 60 min of incubation in the dark at 25° C.

[4] = Water solubility of peptides; assay type: physicochemical
PapD [5] = target: T1, PapD; assay: Protection of PapD against trypsin cleavage by peptides; assay type: biochemical, E. coli; details: preincubation with 20-fold molar excess of peptide
Description: A Lower: The rate of trypsin cleavage of PapD decreased upon preincubation with the G1′-19′WT, G1′-16′WT or K1′-19′WT peptides, but the G2′-21′amide peptide had no effect. 50 μg of purified PapD was preincubated for 15 min at 25° C. with a 20-fold molar excess of G1′-19′WT, G1′-16′WT, K1′-19′WT or G2′-21′amide peptides (any trypsin cleavage sites in these peptides occur at their amino termini where they were predicted not to interfere with PapD), or an equivalent volume of water. Each sample was then incubated at 37° C. with 3.2 μg of trypsin. Aliquots were removed after 0, 5, 10, 20, 30 and 40 min and boiled in SDS-PAGE sample buffer to stop the digestion. The samples were applied to 15% SDS-PAGE gels and the amount of full-length PapD remaining was determined by densitometry of Coomassie blue stained bands corresponding to full-length PapD which are shown.
400 μg of PapD was partially digested by incubation with either 4,5μg trypsin or 0.45 μg chymotrypsin on PBS for 20 min. at 37° C. The PapD digests were applied to a C-18 HPLC column (Beckman) and 2 major fragments were eluted with a 0-100% acetonitrile gradient in 0.01% trifluoroacetic acid. The PapD fragments were identified by their molecular weight on SDS-PAGE and amino-terminal sequencing. The N-terminal amino acid sequences of the approximately 14 kDa tryptic and chymotryptic fragments were identified as residues 100-108 and 104-109 of PapD, respectively, corresponding to cleavage after Lys-99 (for trypsin) and Leu-103 (for chymotrypsin). The N-terminal sequences of the 11 and 12 kDa bands in the digests were identical to the N-terminal sequence of PapD.

PapD-PapG complex = target: T2, PapD-PapG complex (Escherichia coli, UniProt P15319); assay: Reconstitution assay: restoration of PapD-PapG complex from reduced, denatured PapD-PapG; assay type: binding, E. coli; details: PapD preincubated with peptide
T2 construct: (A) NAME/KEY: mat_; made in house
T2 sequence (P15319 22-239): T1 sequence (P15319 22-239)
Description: B: PapD incubated with the G1′-19′WT, G1′-16′WT, K1′-19′WT, and G2′-21′amide was added to reduced, denatured PapD-PapG and the amount of PapD-PapG complex restored in each sample was quantitated as described in example 2. The % inhibition represents the amount of the PapD-PapG complex restored with peptide-treated PapD compared to the amount of PapD-PapG complex restored with untreated PapD. The graph represent the average of 4 experiments. PapD and PapD-PapG complex were prepared as described in F. Lindberg et al, J. Bacteriol. 171, 6052 (1989) and S. J. Hultgren et al., Proc. Natl. Acad. Sci. USA 86, 4357 (1989).
FIG. 7: Ability of PapD Arg-8, Lys-112 and Thr-7 mutants to bind PapG and restore the PapD-PapG complex in vitro. 0.4 μg of PapD-PapG complex was reduced and denatured as described in FIG. 2B. The denatured PapD-PapG complex was then diluted with 0-630 ng purified wild type (WT) or mutant PapD. The amount of PapD-PapG restored in the samples was determined as in FIG. 2B and was graphed as a percentage of the greatest amount of PapD-PapG restored. The values graphed represent the average of 3 experiments. Wild type and mutant PapD and the PapD-PapG complex were purified as described in F. Lindberg et al, J. Bacteriol. 171, 6052 (1989) and S. J. Hultgren et al., Proc. Natl. Acad. Sci. USA 86, 4357 (1989).
The PapD-peptide solution was then added to the reduced, denatured PapD-PapG, incubated at 25° C. for 10 min, and applied to an IEF 3-9 gel (Pharmacia). The amount of PapD-PapG restored in each sample was quantitated by densitometry of the silver stained IEF band corresponding to the pI of the DG complex.

Row | Substance | inhibitory power on binding of PapD to MBP-G1′-140′ (PapD [2]) | binding of PapD to immobilized peptide (PapD [3]) | other results
1 | G1′-4′: 4 C-terminal amino acid residues of PapG (numbering of b394) (LSFP) | – | – | % Inhibition (PapD [1]): 0%
2 | G1′-6′: length series of peptides from the C-terminus of PapG, 6 residues (MVLSFP) | less active inhibitory peptides | – | –
3 | G1′-8′: octameric peptide from the C-terminus of PapG (MTMVLSFP) | significantly higher inhibitive effect; also recorded: significantly more potent | – | –
4 | H-QNLIAGPFSATATLVASYS-OH [E1′-19′WT, NH2-QNLIAGPFSATATLVASYS-COOH] | – | moderately | –
5 | H-SGSMTMVLSFP-OH [G1′-11′WT, NH2-SGSMTMVLSFP-COOH] | significantly more potent | binds | –
6 | H-TMVLSFP-OH [G1′-7′WT, NH2-TMVLSFP-COOH] | less active inhibitory peptides | does not bind | solubility [4]: limited solubility
7 | NH2-EEGKRKPGELSGSMTMVLSF-CONH2 (H-EEGKRKPGELSGSMTMVLSF-NH2) [G2′-21′amide] | – | reduced binding of PapD | reduction of binding of PapD to the immobilized peptide (PapD [3]): approximately 75%; % Inhibition (PapD [1]): 0%; rate of trypsin cleavage of PapD (PapD [5]): had no effect and not; inhibition of restoration of the PapD-PapG complex by PapD (PapD-PapG complex): has no effect
8 | NH2-GILNGGDFQTTASMAMIYN-COOH (H-GILNGGDFQTTASMAMIYN-OH) [F1′-19′WT] | – | moderately | –
9 | NH2-GKRKPGELSGSMTMVLSFP-CONH2 (H-GKRKPGELSGSMTMVLSFP-NH2) [G1′-19′ amide] | – | did not affect binding to PapD | –
10 | NH2-GKRKPGELSGSMTMVLSFP-COOH (H-GKRKPGELSGSMTMVLSFP-OH) [G1′-19′WT] | – | bound well | rate of trypsin cleavage of PapD (PapD [5]): decreased; also recorded: reduced the rate of tryptic cleavage of PapD; inhibition of restoration of the PapD-PapG complex by PapD (PapD-PapG complex): inhibit restoration of the PapD-PapG complex
11 | NH2-GKRKPVELSGSMTMVLSSP-COOH (H-GKRKPVELSGSMTMVLSSP-OH) [G1′-19′SV] | – | – | reduction of binding of PapD to the immobilized peptide (PapD [3]): 36%
12 | NH2-KKLEAGNYFAVLGFRVDYE-COOH (H-KKLEAGNYFAVLGFRVDYE-OH) [H1′-19′ WT] | – | no binding | –
13 | NH2-KPGELSGSMTMVLSFP-COOH (H-KPGELSGSMTMVLSFP-OH) [G1′-16′WT] | significantly more potent | binds | rate of trypsin cleavage of PapD (PapD [5]): decreased; also recorded: reduced the rate of tryptic cleavage of PapD; inhibition of restoration of the PapD-PapG complex by PapD (PapD-PapG complex): inhibit restoration of the PapD-PapG complex
14 | NH2-KSVVPGDYEATATFELTYR-COOH (H-KSVVPGDYEATATFELTYR-OH) [K1′-19′WT] | – | tight binding | binding of PapD to immobilized peptide (PapD [3]; listed as PapK): moderately; rate of trypsin cleavage of PapD (PapD [5]): decreased; also recorded: reduced the rate of tryptic cleavage of PapD; inhibition of restoration of the PapD-PapG complex by PapD (PapD-PapG complex): inhibit restoration of the PapD-PapG complex
15 | NH2-YALAPNAVIPTSLALL-COOH (H-YALAPNAVIPTSLALL-OH) [MS, random hydrophobic peptide, reference compound] | – | no binding | % Inhibition (PapD [1]): 1%
